From patent US20240141072A1 (published 2024) come the findings set out here.

Residue numbers refer to the chain shown, from its start.

For this test, the target named is T1, biotinylated human DLL3 protein expressed as a human IgG1 fusion protein (human, UniProt Q9NYJ7 27-492, limits assumed, biotinylated).
T1 sequence: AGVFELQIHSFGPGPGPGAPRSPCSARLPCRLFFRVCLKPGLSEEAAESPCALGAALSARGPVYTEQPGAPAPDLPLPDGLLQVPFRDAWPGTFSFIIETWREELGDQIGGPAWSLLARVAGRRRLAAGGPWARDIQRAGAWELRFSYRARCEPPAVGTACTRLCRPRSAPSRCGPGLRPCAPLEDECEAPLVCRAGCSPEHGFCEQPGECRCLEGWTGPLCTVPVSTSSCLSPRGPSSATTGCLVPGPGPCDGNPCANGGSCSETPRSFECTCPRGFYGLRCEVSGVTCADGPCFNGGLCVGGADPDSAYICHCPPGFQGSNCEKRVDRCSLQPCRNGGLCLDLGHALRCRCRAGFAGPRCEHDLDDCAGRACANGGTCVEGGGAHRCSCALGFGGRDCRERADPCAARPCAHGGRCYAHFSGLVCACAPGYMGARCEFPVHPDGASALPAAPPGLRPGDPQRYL
The experiment in a line: Octet BLI, single 50 nM. The protocol:
Using the conditioned medium with known concentrations of the anti-DLL3 trispecific proteins, the binding affinities of the anti-DLL3 trispecific proteins toward human DLL3 protein were measured using a method where biotinylated version of human DLL3 protein were expressed as a human IgG1 fusion protein, and the binding affinity measurement was carried out in an Octet instrument with streptavidin tips.
In general terms: Biolayer interferometry detects binding as a change in optical thickness at a sensor tip.

B1: 1E08 anti-DLL3 trispecific protein (other)
chain: EVQLVESGGGLVQPGGSLTLSCVASGKTSSINAMGWYRRAPGKQRELVAGISSDGSKVIADSVKGRFTISRDNAKNSVYLQMNSLRAEDTAVYYCYYFRTVLGSSMRYWGQGTLVTVSS
notes: not shown: linker 1808, anti-albumin sdAb, linker 1808, anti-CD3 fragment, His6 1819
Molecule B1 yielded an equilibrium dissociation constant (Kd) of 9.4 nM.

B2: 1E09 anti-DLL3 trispecific protein (other)
chain: B1 chain with K27S, G35A, I59Y, A60T, V101R, L102S
notes: as for B1
With B2, the affinity, expressed as Kd, was 4.4 nM. This Kd lies about 2.1-fold lower than the previous one.

B3: 2B012 anti-DLL3 trispecific protein (other)
chain: B1 chain with K27T, I59Y, A60N, L102R
notes: as for B1
Molecule B3 displayed a Kd of 7.3 nM.

B4: 1H06 anti-DLL3 trispecific protein (other)
chain: B1 chain with K27T, I59Y, A60V, T100F, V101L, L102S
notes: as for B1
B4 registered a Kd of 14 nM.

B5: 2A05 anti-DLL3 trispecific protein (other)
chain: B1 chain with K27R, I59Y, A60N, L102S, S104T
notes: as for B1
As to B5, the Kd amounted to 8.9 nM. Compared with the last molecule, the Kd is about 1.6-fold lower.

B6: 1H01 anti-DLL3 trispecific protein (other)
chain: B1 chain with K27S, G35A, V48A, G55N, I59Y, V101R, L102S
notes: as for B1
In the case of B6, the Kd amounted to 5.7 nM.

B7: 1G09 anti-DLL3 trispecific protein (other)
chain: B1 chain with K27S, I59Y, L102S, G103K
notes: as for B1
The molecule B7 displayed a dissociation constant (Kd) of 10 nM. This Kd is about 1.8-fold higher than that of the molecule before.

B8: 1F02 anti-DLL3 trispecific protein (other)
chain: B1 chain with K27S, G35A, V48A, G55Q, I59Y, V63A, L102S, R107S
notes: as for B1
The molecule B8 registered a Kd of 4 nM.

B9: 1G05 anti-DLL3 trispecific protein (other)
chain: B1 chain with K27S, M34I, V58Y, I59Y, L102T
notes: as for B1
Consider B9, for which the Kd came to 14 nM.

B10: 1G011 anti-DLL3 trispecific protein (other)
chain: B1 chain with K27S, G35A, I59Y, R99K, L102S
notes: as for B1
B10: the affinity, expressed as Kd, was 6.8 nM.

B11: 1F012 anti-DLL3 trispecific protein (other)
chain: B1 chain with K27L, I59Y, A60Q, V101N, L102S
notes: as for B1
The molecule B11 came in with a Kd of 5.8 nM.

B12: 1G06 anti-DLL3 trispecific protein (other)
chain: B1 chain with K27S, M34I, I59Y, D61V, T100K, L102S, M106A
notes: as for B1
Molecule B12 came in with a Kd of 26 nM. This Kd lies about 4.5-fold higher than the previous one.

B13: 2B07 anti-DLL3 trispecific protein (other)
chain: B1 chain with K27S, M34F, I59Y, L102R
notes: as for B1
As for B13, the Kd is 5.7 nM.

B14: 1F011 anti-DLL3 trispecific protein (other)
chain: B1 chain with K27S, M34I, I59Y, L102K
notes: as for B1
In the case of B14, the Kd stood at 5 nM.

B15: 2A06 anti-DLL3 trispecific protein (other)
chain: B1 chain with K27S, I31R, I59T, V101R, L102S
notes: as for B1
For the molecule B15, binding was characterised by a dissociation constant (Kd) of 8.9 nM.

B16: 2A08 anti-DLL3 trispecific protein (other)
chain: B1 chain with K27S, S29K, I59Y, A60R, V101S, L102S
notes: as for B1
On to B16, for which binding was put at a Kd of 7.7 nM.

B17: 2B011 anti-DLL3 trispecific protein (other)
chain: B1 chain with K27N, K57R, I59Y, L102S, Y108S
notes: as for B1
The molecule B17 displayed a Kd of 11 nM. The Kd values of the last two molecules are within 1.5-fold of each other.

B18: 1H07 anti-DLL3 trispecific protein (other)
chain: B1 chain with K27S, M34F, I59Y, A60S, L102S
notes: as for B1
For the molecule B18, the Kd came out at 6.2 nM.

B19: 2C01 anti-DLL3 trispecific protein (other)
chain: B1 chain with K27S, S29A, I59Y, T100Y, L102S
notes: as for B1
For B19, binding was put at a Kd of 12 nM.

B20: 2B03 anti-DLL3 trispecific protein (other)
chain: B1 chain with K27S, K57L, I59Y, R99T, L102S
notes: as for B1
For B20, the affinity, expressed as Kd, was 7.6 nM. Against the preceding molecule, the Kd is about 1.6-fold lower.

B21: 2A011 anti-DLL3 trispecific protein (other)
chain: B1 chain with K27S, M34I, I59Y, A60S, T100P, L102S
notes: as for B1
B21 came in with a Kd of 4 nM.

B22: 1F05 anti-DLL3 trispecific protein (other)
chain: B1 chain with K27S, S29R, I59Y, R99H, L102S
notes: as for B1
In turn, B22 came in with a Kd of 5.8 nM.

B23: 1H010 anti-DLL3 trispecific protein (other)
chain: B1 chain with K27S, S29R, I59Y, A60N, L102S, Y108F
notes: as for B1
The molecule B23 gave a Kd of 8.4 nM.

B24: 1E010 anti-DLL3 trispecific protein (other)
chain: B1 chain with K27S, T28V, I59Y, A60I, L102S, S104L
notes: as for B1
B24: binding was put at a Kd of 5.7 nM. This Kd and that of the molecule before are within 1.5-fold of each other.

B25: 1F04 anti-DLL3 trispecific protein (other)
chain: B1 chain with K27G, I59Y, A60S, L102S, M106A
notes: as for B1
In the case of B25, the equilibrium dissociation constant (Kd) is 10 nM.

B26: 1F09 anti-DLL3 trispecific protein (other)
chain: B1 chain with K27N, D54N, I59Y, L102T
notes: as for B1
The molecule B26 yielded a Kd of 35 nM.

B27: 1G01 anti-DLL3 trispecific protein (other)
chain: B1 chain with K27S, G35A, I59Y, D61E, L102S, S104A
notes: as for B1
B27 returned a Kd of 6.6 nM.

B28: 1F08 anti-DLL3 trispecific protein (other)
chain: B1 chain with K27S, G35A, I59Y, A60K, T100N, L102S
notes: as for B1
B28: the Kd stood at 31 nM.

B29: 2B01 anti-DLL3 trispecific protein (other)
chain: B1 chain with K27S, S30L, I59Y, T100H, L102S
notes: as for B1
Consider B29, for which binding was characterised by a dissociation constant (Kd) of 10 nM.

B30: 1H08 anti-DLL3 trispecific protein (other)
chain: B1 chain with K27S, S29F, I59L, T100L, L102S
notes: as for B1
The molecule B30 had a Kd of 17 nM. This Kd is about 1.7-fold higher than that of the molecule before.

B31: 2C09 anti-DLL3 trispecific protein (other)
chain: EVQLVESGGGLVQPGGSLTLSCVPSGSTSNINAMGWYRRAPGKQRELPAGISSDGTKIYADSAKVPFTITRDNAKNSVYLQMNSLRAEDTAVYYCYYFRTVSGTSMRYWGQGTLVTVSS
notes: as for B1
Molecule B31 gave a Kd of 6.4 nM.

B32: 1H02 anti-DLL3 trispecific protein (other)
chain: B1 chain with K27S, T28K, V48A, I59Y, D61Q, V101S, L102S
notes: as for B1
B32 had a Kd of 10 nM.

B33: 2A09 anti-DLL3 trispecific protein (other)
chain: B1 chain with K27S, I31R, D54N, I59Y, A60S, L102S, R107S
notes: as for B1
For B33, the Kd is 10 nM.

B34: 2A03 anti-DLL3 trispecific protein (other)
chain: B1 chain with K27T, I59Y, A60G, L102S, S105A
notes: as for B1
Consider B34, for which binding was put at a Kd of 8.2 nM. The Kd values of the last two molecules are within 1.5-fold of each other.

B35: 1E012 anti-DLL3 trispecific protein (other)
chain: B1 chain with K27S, I31T, I59Y, A60V, L102S, R107V
notes: as for B1
B35 yielded a Kd of 5.3 nM.

B36: 2C07 anti-DLL3 trispecific protein (other)
chain: B1 chain with K27S, G35A, I59Y, T100S, L102S
notes: as for B1
The molecule B36 registered a Kd of 6.2 nM.

B37: 1F01 anti-DLL3 trispecific protein (other)
chain: B1 chain with K27S, I59Y, A60G, L102S, G103R
notes: as for B1
With B37, the Kd was 9.4 nM. This Kd is about 1.5-fold higher than that of the molecule before.

B38: 1F010 anti-DLL3 trispecific protein (other)
chain: B1 chain with K27S, S30R, I59Y, A60K, L102S
notes: as for B1
B38 displayed a dissociation constant Kd of 6.3 nM. This Kd and that of the molecule before are within 1.5-fold of each other.

B39: 2B010 anti-DLL3 trispecific protein (other)
chain: B1 chain with K27S, I31R, V58L, I59Y, A60L
notes: as for B1
B39 returned a dissociation constant Kd of 10 nM.

B40: 1G04 anti-DLL3 trispecific protein (other)
chain: B1 chain with K27S, I31T, I59L, L102N, G103L
notes: as for B1
In turn, B40 returned a dissociation constant (Kd) of 11 nM.

B41: 2B02 anti-DLL3 trispecific protein (other)
chain: B1 chain with K27S, G35A, I59Y, V101K, L102S
notes: as for B1
With B41, the Kd amounted to 6.6 nM. This Kd is about 1.7-fold lower than that of the molecule before.

B42: 2C08 anti-DLL3 trispecific protein (other)
chain: B1 chain with K27S, S30R, I59Y, A60Q, T100R, L102S
notes: as for B1
As for B42, the Kd is 6.1 nM. The Kd values of the last two molecules are within 1.5-fold of each other.

B43: 1F07 anti-DLL3 trispecific protein (other)
chain: B1 chain with K27S, I59D, L102S
notes: as for B1
Molecule B43 displayed a Kd of 13 nM.

B44: 1G07 anti-DLL3 trispecific protein (other)
chain: B1 chain with K27S, I59V, V101Y, L102S
notes: as for B1
In turn, B44 returned a Kd of 8.3 nM.

B45: 1E011 anti-DLL3 trispecific protein (other)
chain: B1 chain with K27N, I59Y, A60Y, L102R, M106Q
notes: as for B1
B45: the Kd amounted to 2.7 nM.

B46: 1F06 anti-DLL3 trispecific protein (other)
chain: B1 chain with K27T
notes: as for B1
Take B46: binding was put at a Kd of 8.9 nM.

B47: 2C02 anti-DLL3 trispecific protein (other)
chain: B1 chain with K27S, M34V, I59Y, A60V, L102Y
notes: as for B1
Turning to B47, binding was characterised by a dissociation constant (Kd) of 4.1 nM.

B48: 2C06 anti-DLL3 trispecific protein (other)
chain: B1 chain with K27S, S29N, I59Y, A60K, F98Y, L102S
notes: as for B1
In turn, B48 displayed a Kd of 6.7 nM. Against the preceding molecule, the Kd is about 1.6-fold higher.

B49: 2B05 anti-DLL3 trispecific protein (other)
chain: B1 chain with K27T, S56T, I59Y, R99H, L102S
notes: as for B1
As for B49, binding was put at a Kd of 7.4 nM.

B50: 1H011 anti-DLL3 trispecific protein (other)
chain: B1 chain with K27S, M34I, I59Y, A60N, V101Q, L102S
notes: as for B1
Molecule B50 came in with a Kd of 6.2 nM.

B51: 2A01 anti-DLL3 trispecific protein (other)
chain: B1 chain with K27S, I59V, V101L, L102S
notes: as for B1
Consider B51, for which the affinity, expressed as Kd, was 8 nM.

A word on the Kd: it is the equilibrium constant for the complex coming apart. Lower therefore signals higher affinity.
